The source of these data is publication PMC7571800.

In data set [1] the target is SUZ12(N) 3D;RBBP4;MTF2 full-length (Homo sapiens;Homo sapiens;Homo sapiens?, UniProt Q15022;Q09028;Q9Y483 76-545;1-425;1-593, K195D;R196D;K197D||). The data set can be described thus: EMSA. Background: A gel shift assay detects complexes by their altered migration in electrophoresis.
The target of data set [2] is SUZ12(N);RBBP4;MTF2 full-length (Homo sapiens;Homo sapiens;Homo sapiens?, UniProt Q15022;Q09028;Q9Y483 76-545;1-425;1-593, ||). The data set can be described thus: EMSA.
Chain of SUZ12(N);RBBP4;MTF2 full-length (Q15022 76-545, chain 1 of 3): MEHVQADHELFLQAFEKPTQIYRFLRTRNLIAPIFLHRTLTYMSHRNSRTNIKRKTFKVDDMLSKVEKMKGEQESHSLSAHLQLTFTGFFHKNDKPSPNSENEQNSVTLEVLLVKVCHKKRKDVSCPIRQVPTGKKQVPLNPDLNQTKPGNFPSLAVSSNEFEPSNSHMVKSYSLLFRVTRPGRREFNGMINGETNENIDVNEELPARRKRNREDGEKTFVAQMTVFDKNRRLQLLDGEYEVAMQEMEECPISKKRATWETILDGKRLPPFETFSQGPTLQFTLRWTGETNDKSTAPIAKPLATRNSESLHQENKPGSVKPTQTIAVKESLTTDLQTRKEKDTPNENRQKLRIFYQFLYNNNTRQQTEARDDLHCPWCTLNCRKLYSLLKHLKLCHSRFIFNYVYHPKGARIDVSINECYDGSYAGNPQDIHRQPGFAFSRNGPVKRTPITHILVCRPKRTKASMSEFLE
Chain of SUZ12(N);RBBP4;MTF2 full-length (Q09028 whole entry, chain 2 of 3): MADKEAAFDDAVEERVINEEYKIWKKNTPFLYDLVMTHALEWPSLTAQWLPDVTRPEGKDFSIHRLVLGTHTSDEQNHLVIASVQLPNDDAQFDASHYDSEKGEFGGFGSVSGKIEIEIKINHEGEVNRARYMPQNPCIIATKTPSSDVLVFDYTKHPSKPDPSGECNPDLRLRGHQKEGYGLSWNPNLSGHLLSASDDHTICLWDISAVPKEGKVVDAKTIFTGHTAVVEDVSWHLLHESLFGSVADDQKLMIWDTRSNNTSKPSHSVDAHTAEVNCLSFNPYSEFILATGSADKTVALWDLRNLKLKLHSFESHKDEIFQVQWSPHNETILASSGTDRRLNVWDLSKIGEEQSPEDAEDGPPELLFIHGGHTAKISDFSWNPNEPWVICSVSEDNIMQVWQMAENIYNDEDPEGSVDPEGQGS
Chain of SUZ12(N);RBBP4;MTF2 full-length (Q9Y483 whole entry, chain 3 of 3): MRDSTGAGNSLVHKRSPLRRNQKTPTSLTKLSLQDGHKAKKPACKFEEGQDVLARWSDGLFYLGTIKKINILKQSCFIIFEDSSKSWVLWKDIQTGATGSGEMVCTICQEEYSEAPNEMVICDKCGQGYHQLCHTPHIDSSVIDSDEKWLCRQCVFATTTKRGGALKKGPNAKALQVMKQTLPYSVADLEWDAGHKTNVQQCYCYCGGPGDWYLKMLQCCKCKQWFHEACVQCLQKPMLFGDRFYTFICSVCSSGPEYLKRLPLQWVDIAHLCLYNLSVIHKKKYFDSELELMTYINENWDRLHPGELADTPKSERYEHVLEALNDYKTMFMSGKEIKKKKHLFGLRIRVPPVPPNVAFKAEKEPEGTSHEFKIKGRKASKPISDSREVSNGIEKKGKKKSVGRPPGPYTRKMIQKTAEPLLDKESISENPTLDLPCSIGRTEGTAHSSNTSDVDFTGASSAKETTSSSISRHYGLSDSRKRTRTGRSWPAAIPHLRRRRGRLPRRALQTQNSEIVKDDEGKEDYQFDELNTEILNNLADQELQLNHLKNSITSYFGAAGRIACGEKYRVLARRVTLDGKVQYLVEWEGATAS

Chain of SUZ12(N) 3D;RBBP4;MTF2 full-length (Q15022 76-545 K195D/R196D/K197D, chain 1 of 3): as the sequence (Q15022 76-545, chain 1 of 3) above, with K120D, R121D, K122D counted along it
Chain of SUZ12(N) 3D;RBBP4;MTF2 full-length (Q09028 whole entry, chain 2 of 3): as the sequence (Q09028 whole entry, chain 2 of 3) above
Chain of SUZ12(N) 3D;RBBP4;MTF2 full-length (Q9Y483 whole entry, chain 3 of 3): as the sequence (Q9Y483 whole entry, chain 3 of 3) above

B1: CGI-LHX6 100 bp (dsDNA)
DNA 1: GTGGTGGTGGTGGTTGAGAAAATAAAACCCAGAGCGCTAGGAGCATCCGCCCGCTCGACGCGCGCCGGGAAATTGAAGCGGGGATATTGACACCGATTCA
DNA 2: TGAATCGGTGTCAATATCCCCGCTTCAATTTCCCGGCGCGCGTCGAGCGGGCGGATGCTCCTAGCGCTCTGGGTTTTATTTTCTCAACCACCACCACCAC
Usually Kd stands for the constant that tells how readily two partners part at equilibrium. Higher therefore signals lower affinity. B1: the binding signal in data set [1] was above 25 fold weaker than WT. In data set [2], the affinity, expressed as Kd, was 17.6 nM.
